Data reported in patent EP0629133B1, “PEPTIDE-METAL ION PHARMACEUTICAL APPLICATIONS” (Rhomed, Incorporated, priority 1992, dated 1993).
Like-named read-outs stand apart in the source and are kept apart here. Ends that are not written are not given here.

Assays:
thromboembolism = assay: Diagnostic imaging of thrombosis in a patient (gamma scintigraphy or SPECT); type: in vivo; settings: kit of Examples 12, 18, 19, or 20, i.v., imaged at 30 minute intervals
Description: A kit of Examples 12, 18, 19, or 20 is used in to localise thromboembolism in a patient. After radiolabelling with ^99mTc as in Example 13, the ^99mTc-YIGSR-peptide is injected intravenously. Starting immediately upon injection, the patient is imaged, using conventional gamma scintigraphy or SPECT imaging, and is imaged at 30 minute intervals thereafter.

[1] = Clearance rates of 99mTc-YIGSR-peptide (plasma, urine, bile; cannulated animals); type: in vivo, adult female Sprague-Dawley rats
Description: The clearance rates of the ^99mTc-YIGSR-peptide of Example 12 was evaluated in adult female Sprague-Dawley rats at 2 hours after injection. Each experimental group was composed of three animals. Each animal was anaesthetised with ketamine and the bile duct and bladder were cannulated. Blood was collected over various periods of time from the jugular vein. […] In biodistribution studies, the highest amount of radioactivity was found in the kidneys, and is consistent with the rat clearance data. No major accumulation of radioactivity was found in any organ examined (other than kidney), and at later times (2 and 4 hours post injection) no re-distribution of the radiolabel was noted.

platelets = assay: In vitro binding of 99mTc-YIGSR-containing peptide to platelets; type: cell-based, human; settings: 90 minutes, approximately 10^7 platelets, 2 to 200 µg of radiolabelled peptide
Description: (§1) In other experiments, the peptide of Example 12, labelled as in Example 13, was used for in vitro binding studies. In these studies, the ^99mTc-YIGSR-containing peptide was incubated for 90 minutes with either 0.5 ml of whole blood clots, using from 0.4 to 50 µg of radiolabelled peptide, or with approximately 10^7 platelets, using from 2 to 200 µg of radiolabelled peptide.

whole blood clots = assay: In vitro binding of 99mTc-YIGSR-containing peptide to whole blood clots; type: cell-based, human; settings: 90 minutes, 0.5 ml of whole blood clots, 0.4 to 50 µg of radiolabelled peptide
Description: as §1

[2] = Biodistribution after pre-incubation of 99mTc-YIGSR-peptide in whole human blood; type: in vivo, mice; settings: pre-incubated 30 minutes in whole human blood, compared with no incubation in blood
Description: (§2) Some studies involved pre-incubation of the ^99mTc-YIGSR-peptide in whole blood prior to injection and determination of biodistribution (Table 7). In these studies, whole human blood was obtained from a healthy adult donor and collected into Vacutainer tubes containing EDTA. After mixing to insure proper dissolution of the EDTA, approximately 2.5 ml of the whole blood was removed and mixed with 0.25 ml of ^99mTc-YIGSR-peptide. The mixture was allowed to incubate 30 minutes at room temperature. After 30 minutes, aliquots of 0.1 ml were injected into the tail vein of the mice. The amount of radioactivity in the circulation for ^99mTc-YIGSR-peptide of Example 12 pre-incubated in whole blood was similar to that in animals receiving ^99mTc-YIGSR-peptide without incubation in blood.

[3] = Biodistribution of 99mTc-YIGSR-peptide after tail vein injection; type: in vivo, adult female Swiss-Webster mice; settings: biodistribution studies
Description: The biodistribution of the ^99mTc-YIGSR-peptide of Example 12 was evaluated in adult female Swiss-Webster mice (approximately 19 g) at selected times (10, 30, and 120 minutes) after injection into the tail vein. Each experimental group was composed of at least five animals, with each animal receiving 0.1 ml containing 5 µg of peptide (1 µCi/µg). Animals were sacrificed by Halothane overdose, and selected organs dissected, weighed, and associated radioactivity determined. Data were analysed using a computer program specifically designed for ^99mTc-labelled preparations. The percent dose per organ for blood, bone, and muscle were calculated assuming 7, 8.2, and 40% of total body weight, respectively, for these tissues.

[4] = freshly radiolabelled
[5] = design: species or system tight-skin (Tsk) mouse; settings: mouse, in vivo
Source text: Biodistribution was also studied in a lung disease model which used tight-skin mice with genetic emphysema. The tight-skin (Tsk) mouse is a genetic mutant caused by a dominant gene deficiency of serum anti-elastase. Heterozygous (Tsk/+) animals show multiple skin connective tissue abnormalities resembling scleroderma as well as an increased growth of cartilage, bone, and small tendons with hyperplasia of the tendon sheaths. The Tsk trait is associated with progressive pulmonary emphysema and development of right ventricular hypertrophy, as well as with lung collagen changes. These mice, as well as genetic control mice (pallid), were obtained from The Jackson Laboratory (Bar Harbor, ME). The relative localisation of ^99mTc-IKVAV-peptide of Example 4 at all time points examined (10, 30, and 120 minutes post-injection), was decreased in the lungs of animals with emphysema relative to paired control animals.

[6] = design: species or system adult female Fischer 344 rats; settings: rat, in vivo
Description: The clearance rates of the ^99mTc-IKVAV-containing peptide of Example 4 was evaluated in adult female Fischer 344 rats at 2 hours after injection. Each experimental group was composed of three animals. Each animal was anaesthetised with ketamine and the bile duct and bladder were cannulated. Blood was collected over various periods of time from the jugular vein.

[7] = design: species or system mice; settings: mouse, in vivo
Description: as §2, with “^99mTc-IKVAV-containing peptide” for “^99mTc-YIGSR-peptide”, “biodistribution.” for “biodistribution (Table 7).”, “adult male” for “adult”, “^99mTc-peptide.” for “^99mTc-YIGSR-peptide.”, “^99mTc-IKVAV-containing peptide” for “^99mTc-YIGSR-peptide of Example 12”, “higher than” for “similar to that”

| Substance | appearance of sites of thromboembolism by scintigraphy (thromboembolism) | bile clearance ([1]; at two hours) | injected doses cleared through urine ([1]; at two hours) | clearance rate from the plasma ([1]; rats) | binding to platelets (platelets) | binding to whole blood clots (whole blood clots) | amount of radioactivity in the circulation [2] | organ with the highest amount of radioactivity [3] | particles under a phase contrast microscope [4] | relative localisation in the lungs [5] | bile clearance [6] | clearance rate from the plasma [6] | injected dose cleared through urine [6] | amount of radioactivity in the circulation [7] | lung uptake [7] |
| --- | --- | --- | --- | --- | --- | --- | --- | --- | --- | --- | --- | --- | --- | --- | --- |
| H-CDPGYIGSR [^99mTc-YIGSR-peptide] | photon-rich image locations | 6.9 ± 0.3% | 31.2 ± 9.1% | 2.6 mL/min | dose-response relationship | dose-response relationship | similar | kidneys | – | – | – | – | – | – | – |
| CSRARKQAASIKVAVSADR [^99mTc-IKVAV-containing peptide] | – | – | – | – | – | – | – | – | No particles were visible | decreased | 0.9 ± 0.3% | 2.4 mL/min | 10.8 ± 4.9% | higher | significantly decreased |
